From patent US20170360911A1

Experiments:
[1] = target: HLA-A*02:01 (human); assay: T2-A24 MHC class I stabilization, flow cytometry, anti-HLA-A02 BB7.2-FITC, peptide 100 ug/mL; settings: remark: other sources report otherwise
[2] = target: HLA-A*24:02 (human)

Binder | MFI (solvent ratio) (ratio to solvent) [1] | MFI (solvent ratio) (ratio to solvent) [2]
EADPTGHSY [MAGE-1161-169 peptide] | 1 | 
RGYVYQGL (modifications not checked) [VSV52-59 peptide] |  | 1
